pKd: −log10 of the molar value.

Drawing on paper PMC9001736, this text covers Kd for one substance.

In experiment [1] the target is ZZ domain of HERC2 (HERC2ZZ, aa 2702–2755 with additional tryptophan at the C-terminus) (human) (UniProt O95714). Put plainly: other fluorescence titration; tryptophan fluorescence; 1 μM HERC2ZZ with increasing REEE peptide; 25 °C; 20 mM Tris (pH 6.8), 150 mM NaCl, 2 mM DTT; excitation 295 nm.
The target is the same in experiment [2]. Put plainly: other fluorescence titration; tryptophan fluorescence; 1 μM HERC2ZZ with 1 μM HERC2DOC present, increasing REEE peptide; 25 °C; 20 mM Tris (pH 6.8), 150 mM NaCl, 2 mM DTT.

Sequence of ZZ domain of HERC2 (HERC2ZZ, aa 2702–2755 with additional tryptophan at the C-terminus) (human) (O95714 other isoform, or with tags, fused parts or gaps): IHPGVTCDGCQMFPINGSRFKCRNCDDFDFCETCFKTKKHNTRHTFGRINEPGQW

A word on the pKd: it is the negative decadic logarithm of the Kd, by convention in mol/L. A lower pKd goes with a large Kd. Consider “REEE peptide (mimetic of the Nt-R cargo degradation signal)”, for which the values for the negative-log Kd (pKd) in experiment [1] and in experiment [2] were 5.92 and 6.00, respectively.
